Data set [1] in a line: Microtiter hyaluronidase activity assay with biotinylated-hyaluronic acid. Format: biochemical. The following applies: Table 6, 72 hour post transfection supernatant.
The subject of the next data set is CHO-S cells. Put plainly: Western blot analysis of PH20 expression in media and cells after transient expression. Format: cell-based, Chinese Hamster. The following applies: media versus cells. An outline of the steps:
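PH20 expression and solubility were judged by anti-PH20 Western blot of non-reduced media and cell fractions, with expression shown by a ~66 kDa band. Samples came from CHO-S cells transiently transfected (GeneJuice) with mutant PH20-HZ24 DNA and cultured 48-72 h. GPI-anchored mutants were cleaved with PI-PLC to release soluble protein.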
Background: Immunoblotting shows a protein as a band on a membrane.

B1: SPAM1-IFYN: C-terminally truncated human PH20, precursor 483 aa (SEQ ID NO:17), mature 448 aa (SEQ ID NO:69) (protein, listed as Homo sapiens)
chain 1: MGVLKFKHIFFRSFVKSSGVSQIVFTFLLIPCCLTLNFRAPPVIPNVPFLWAWNAPSEFCLGKFDEPLDMSLFSFIGSPRINATGQGVTIFYVDRLGYYPYIDSITGVTVNGGIPQKISLQDHLDKAKKDITFYMPVDNLGMAVIDWEEWRPTWARNWKPKDVYKNRSIELVQQQNVQLSLTEATEKAKQEFEKAGKDFLVETIKLGKLLRPNHLWGYYLFPDCYNHHYKKPGYNGSCFNVEIKRNDDLSWLWNESTALYPSIYLNTQQSPVAATLYVRNRVREAIRVSKIPDAKSPLPVFAYTRIVFTDQVLKFLSQDELVYTFGETVALGASGIVIWGTLSIMRSMKSCLLLDNYMETILNPYIINVTLAAKMCSQVLCQEQGVCIRKNWNSSDYLHLNPDNFAIQLEKGGKFTVRGKPTLEDLEQFSEKFYCSCYSTLSCKEKADVKDTDAVDVCIADGVCIDAFLKPPMETEEPQIFYN
chain 2: LNFRAPPVIPNVPFLWAWNAPSEFCLGKFDEPLDMSLFSFIGSPRINATGQGVTIFYVDRLGYYPYIDSITGVTVNGGIPQKISLQDHLDKAKKDITFYMPVDNLGMAVIDWEEWRPTWARNWKPKDVYKNRSIELVQQQNVQLSLTEATEKAKQEFEKAGKDFLVETIKLGKLLRPNHLWGYYLFPDCYNHHYKKPGYNGSCFNVEIKRNDDLSWLWNESTALYPSIYLNTQQSPVAATLYVRNRVREAIRVSKIPDAKSPLPVFAYTRIVFTDQVLKFLSQDELVYTFGETVALGASGIVIWGTLSIMRSMKSCLLLDNYMETILNPYIINVTLAAKMCSQVLCQEQGVCIRKNWNSSDYLHLNPDNFAIQLEKGGKFTVRGKPTLEDLEQFSEKFYCSCYSTLSCKEKADVKDTDAVDVCIADGVCIDAFLKPPMETEEPQIFYN
modifications: HuPH20 precursor 1-483; Mature HuPH20 36-483
Take B1: in data set [1], the “pH 5.5 Activity” value is 2.3085 Units/ml and the “pH 7.4 Activity” value is 2.45 Units/ml. For the same molecule, in the data set on CHO-S cells, the “Expressed in Media” value is given as “YES”.

B2: SPAM1-FYNA: C-terminally truncated human PH20, precursor 484 aa (SEQ ID NO:16), mature 449 aa (SEQ ID NO:68) (protein, listed as Homo sapiens)
chain 1: MGVLKFKHIFFRSFVKSSGVSQIVFTFLLIPCCLTLNFRAPPVIPNVPFLWAWNAPSEFCLGKFDEPLDMSLFSFIGSPRINATGQGVTIFYVDRLGYYPYIDSITGVTVNGGIPQKISLQDHLDKAKKDITFYMPVDNLGMAVIDWEEWRPTWARNWKPKDVYKNRSIELVQQQNVQLSLTEATEKAKQEFEKAGKDFLVETIKLGKLLRPNHLWGYYLFPDCYNHHYKKPGYNGSCFNVEIKRNDDLSWLWNESTALYPSIYLNTQQSPVAATLYVRNRVREAIRVSKIPDAKSPLPVFAYTRIVFTDQVLKFLSQDELVYTFGETVALGASGIVIWGTLSIMRSMKSCLLLDNYMETILNPYIINVTLAAKMCSQVLCQEQGVCIRKNWNSSDYLHLNPDNFAIQLEKGGKFTVRGKPTLEDLEQFSEKFYCSCYSTLSCKEKADVKDTDAVDVCIADGVCIDAFLKPPMETEEPQIFYNA
chain 2: LNFRAPPVIPNVPFLWAWNAPSEFCLGKFDEPLDMSLFSFIGSPRINATGQGVTIFYVDRLGYYPYIDSITGVTVNGGIPQKISLQDHLDKAKKDITFYMPVDNLGMAVIDWEEWRPTWARNWKPKDVYKNRSIELVQQQNVQLSLTEATEKAKQEFEKAGKDFLVETIKLGKLLRPNHLWGYYLFPDCYNHHYKKPGYNGSCFNVEIKRNDDLSWLWNESTALYPSIYLNTQQSPVAATLYVRNRVREAIRVSKIPDAKSPLPVFAYTRIVFTDQVLKFLSQDELVYTFGETVALGASGIVIWGTLSIMRSMKSCLLLDNYMETILNPYIINVTLAAKMCSQVLCQEQGVCIRKNWNSSDYLHLNPDNFAIQLEKGGKFTVRGKPTLEDLEQFSEKFYCSCYSTLSCKEKADVKDTDAVDVCIADGVCIDAFLKPPMETEEPQIFYNA
modifications: HuPH20 precursor 1-484; Mature HuPH20 36-484
Regarding B2, in data set [1], the “pH 5.5 Activity” value was found to be 1.262 Units/ml and the “pH 7.4 Activity” value is on record as 1.4985 Units/ml. In addition, the “Expressed in Media” value in the data set with CHO-S cells is “YES”.

B3: SPAM1-EPQI: C-terminally truncated human PH20, precursor 480 aa (SEQ ID NO:20), mature 445 aa (SEQ ID NO:72) (protein, listed as Homo sapiens)
chain 1: MGVLKFKHIFFRSFVKSSGVSQIVFTFLLIPCCLTLNFRAPPVIPNVPFLWAWNAPSEFCLGKFDEPLDMSLFSFIGSPRINATGQGVTIFYVDRLGYYPYIDSITGVTVNGGIPQKISLQDHLDKAKKDITFYMPVDNLGMAVIDWEEWRPTWARNWKPKDVYKNRSIELVQQQNVQLSLTEATEKAKQEFEKAGKDFLVETIKLGKLLRPNHLWGYYLFPDCYNHHYKKPGYNGSCFNVEIKRNDDLSWLWNESTALYPSIYLNTQQSPVAATLYVRNRVREAIRVSKIPDAKSPLPVFAYTRIVFTDQVLKFLSQDELVYTFGETVALGASGIVIWGTLSIMRSMKSCLLLDNYMETILNPYIINVTLAAKMCSQVLCQEQGVCIRKNWNSSDYLHLNPDNFAIQLEKGGKFTVRGKPTLEDLEQFSEKFYCSCYSTLSCKEKADVKDTDAVDVCIADGVCIDAFLKPPMETEEPQI
chain 2: LNFRAPPVIPNVPFLWAWNAPSEFCLGKFDEPLDMSLFSFIGSPRINATGQGVTIFYVDRLGYYPYIDSITGVTVNGGIPQKISLQDHLDKAKKDITFYMPVDNLGMAVIDWEEWRPTWARNWKPKDVYKNRSIELVQQQNVQLSLTEATEKAKQEFEKAGKDFLVETIKLGKLLRPNHLWGYYLFPDCYNHHYKKPGYNGSCFNVEIKRNDDLSWLWNESTALYPSIYLNTQQSPVAATLYVRNRVREAIRVSKIPDAKSPLPVFAYTRIVFTDQVLKFLSQDELVYTFGETVALGASGIVIWGTLSIMRSMKSCLLLDNYMETILNPYIINVTLAAKMCSQVLCQEQGVCIRKNWNSSDYLHLNPDNFAIQLEKGGKFTVRGKPTLEDLEQFSEKFYCSCYSTLSCKEKADVKDTDAVDVCIADGVCIDAFLKPPMETEEPQI
modifications: HuPH20 precursor 1-480; Mature HuPH20 36-480
With B3, in data set [1], the “pH 5.5 Activity” value worked out at 1.6425 Units/ml and the “pH 7.4 Activity” value came out at 2.1825 Units/ml. Further, the “Expressed in Media” value with CHO-S cells was “YES”.

B4: SPAM1-QIFY: C-terminally truncated human PH20, precursor 482 aa (SEQ ID NO:18), mature 447 aa (SEQ ID NO:70) (protein, listed as Homo sapiens)
chain 1: MGVLKFKHIFFRSFVKSSGVSQIVFTFLLIPCCLTLNFRAPPVIPNVPFLWAWNAPSEFCLGKFDEPLDMSLFSFIGSPRINATGQGVTIFYVDRLGYYPYIDSITGVTVNGGIPQKISLQDHLDKAKKDITFYMPVDNLGMAVIDWEEWRPTWARNWKPKDVYKNRSIELVQQQNVQLSLTEATEKAKQEFEKAGKDFLVETIKLGKLLRPNHLWGYYLFPDCYNHHYKKPGYNGSCFNVEIKRNDDLSWLWNESTALYPSIYLNTQQSPVAATLYVRNRVREAIRVSKIPDAKSPLPVFAYTRIVFTDQVLKFLSQDELVYTFGETVALGASGIVIWGTLSIMRSMKSCLLLDNYMETILNPYIINVTLAAKMCSQVLCQEQGVCIRKNWNSSDYLHLNPDNFAIQLEKGGKFTVRGKPTLEDLEQFSEKFYCSCYSTLSCKEKADVKDTDAVDVCIADGVCIDAFLKPPMETEEPQIFY
chain 2: LNFRAPPVIPNVPFLWAWNAPSEFCLGKFDEPLDMSLFSFIGSPRINATGQGVTIFYVDRLGYYPYIDSITGVTVNGGIPQKISLQDHLDKAKKDITFYMPVDNLGMAVIDWEEWRPTWARNWKPKDVYKNRSIELVQQQNVQLSLTEATEKAKQEFEKAGKDFLVETIKLGKLLRPNHLWGYYLFPDCYNHHYKKPGYNGSCFNVEIKRNDDLSWLWNESTALYPSIYLNTQQSPVAATLYVRNRVREAIRVSKIPDAKSPLPVFAYTRIVFTDQVLKFLSQDELVYTFGETVALGASGIVIWGTLSIMRSMKSCLLLDNYMETILNPYIINVTLAAKMCSQVLCQEQGVCIRKNWNSSDYLHLNPDNFAIQLEKGGKFTVRGKPTLEDLEQFSEKFYCSCYSTLSCKEKADVKDTDAVDVCIADGVCIDAFLKPPMETEEPQIFY
modifications: HuPH20 precursor 1-482; Mature HuPH20 36-482
Regarding B4, in data set [1], the “pH 5.5 Activity” value is recorded as 1.647 Units/ml and the “pH 7.4 Activity” value came out at 2.032 Units/ml. In addition, in the data set on CHO-S cells, the “Expressed in Media” value was “YES”.

B5: SPAM1-PQIF: C-terminally truncated human PH20, precursor 481 aa (SEQ ID NO:19), mature 446 aa (SEQ ID NO:71) (protein, listed as Homo sapiens)
chain 1: MGVLKFKHIFFRSFVKSSGVSQIVFTFLLIPCCLTLNFRAPPVIPNVPFLWAWNAPSEFCLGKFDEPLDMSLFSFIGSPRINATGQGVTIFYVDRLGYYPYIDSITGVTVNGGIPQKISLQDHLDKAKKDITFYMPVDNLGMAVIDWEEWRPTWARNWKPKDVYKNRSIELVQQQNVQLSLTEATEKAKQEFEKAGKDFLVETIKLGKLLRPNHLWGYYLFPDCYNHHYKKPGYNGSCFNVEIKRNDDLSWLWNESTALYPSIYLNTQQSPVAATLYVRNRVREAIRVSKIPDAKSPLPVFAYTRIVFTDQVLKFLSQDELVYTFGETVALGASGIVIWGTLSIMRSMKSCLLLDNYMETILNPYIINVTLAAKMCSQVLCQEQGVCIRKNWNSSDYLHLNPDNFAIQLEKGGKFTVRGKPTLEDLEQFSEKFYCSCYSTLSCKEKADVKDTDAVDVCIADGVCIDAFLKPPMETEEPQIF
chain 2: LNFRAPPVIPNVPFLWAWNAPSEFCLGKFDEPLDMSLFSFIGSPRINATGQGVTIFYVDRLGYYPYIDSITGVTVNGGIPQKISLQDHLDKAKKDITFYMPVDNLGMAVIDWEEWRPTWARNWKPKDVYKNRSIELVQQQNVQLSLTEATEKAKQEFEKAGKDFLVETIKLGKLLRPNHLWGYYLFPDCYNHHYKKPGYNGSCFNVEIKRNDDLSWLWNESTALYPSIYLNTQQSPVAATLYVRNRVREAIRVSKIPDAKSPLPVFAYTRIVFTDQVLKFLSQDELVYTFGETVALGASGIVIWGTLSIMRSMKSCLLLDNYMETILNPYIINVTLAAKMCSQVLCQEQGVCIRKNWNSSDYLHLNPDNFAIQLEKGGKFTVRGKPTLEDLEQFSEKFYCSCYSTLSCKEKADVKDTDAVDVCIADGVCIDAFLKPPMETEEPQIF
modifications: HuPH20 precursor 1-481; Mature HuPH20 36-481
Turning to B5, in data set [1], the “pH 5.5 Activity” value is listed as 1.701 Units/ml and the “pH 7.4 Activity” value was 1.818 Units/ml. Also, the “Expressed in Media” value with CHO-S cells is listed as “YES”.

The values above are taken from patent publication US9284543B2, “Neutral active soluble truncated PH20 polypeptides and uses thereof” (Halozyme, Inc., priority 2008, dated 2016).
